Measurements published in patent US20220411523A1.

Columns and labels:
[1] = molecular target: Human 4-1BB + Mouse 4-1BB domain1,4B,NF(aa24-46,aa139-186) (human; mouse); experiment: FACS, transiently transfected Expi293 cells (cell F)
[2] = molecular target: Human 4-1BB + Mouse 4-1BB domain1,2A,2B(aa24-86) (human; mouse); experiment: FACS, transiently transfected Expi293 cells (cell A)
Chain of Human 4-1BB + Mouse 4-1BB domain1,2A,2B(aa24-86) (human; mouse) (chain, as listed by the source): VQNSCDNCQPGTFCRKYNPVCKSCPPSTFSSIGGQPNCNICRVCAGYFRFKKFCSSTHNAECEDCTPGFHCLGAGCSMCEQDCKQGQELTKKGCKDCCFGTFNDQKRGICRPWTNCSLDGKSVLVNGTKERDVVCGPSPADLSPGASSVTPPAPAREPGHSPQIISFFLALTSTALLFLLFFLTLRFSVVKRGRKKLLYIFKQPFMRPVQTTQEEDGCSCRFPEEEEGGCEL

Chain of Human 4-1BB + Mouse 4-1BB domain1,4B,NF(aa24-46,aa139-186) (human; mouse) (chain, as listed by the source): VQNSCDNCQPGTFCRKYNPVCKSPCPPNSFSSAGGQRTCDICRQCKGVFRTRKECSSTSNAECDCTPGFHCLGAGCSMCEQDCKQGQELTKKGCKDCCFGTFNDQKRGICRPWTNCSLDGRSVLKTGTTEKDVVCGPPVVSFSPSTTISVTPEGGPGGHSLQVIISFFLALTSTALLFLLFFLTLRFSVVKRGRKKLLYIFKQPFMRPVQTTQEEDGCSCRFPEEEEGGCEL

B1: Hanke10F4 (antibody, human IgG4 S228P, kappa, V domains shown)
VH: QVQLQESGPGLVKPSETLSITCTVSGSSLTSYGVHWVRQPPGKGLEGLGVIWPGGSTNYNSALMSRLTISKDNSKSQVSLKMSSLTAADTAMYYCARVTGTWYFDVWGQGTTVTVSS
VL: DIQMTQSPSSLSASLGDRVTISCSASQGISNYLNWYQQKPDGTVKLLIYYTSTLHSGVPSRFSGSGSGTDFTLTISSLQPEDVATYYCQQYSKLPWTFGGGTKLEIKR
B1 was tested, and the Mean fluorescence intensity [1] was 1870 and the Mean fluorescence intensity [2] was 948.
